# Reference: the nanobody polyreactivity screen of Harvey et al. (2022)
# Test: yeast display, Sf9 membrane polyspecificity reagent, FACS + sequencing; frameworks hold sequencing errors
# Procedure, shortened: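 Galactose-induced (36–48 hours) yeast carrying a synthetic nanobody display library were exposed to 10% biotinylated, detergent-solubilized Sf9 membrane reagent at 4 °C for 1 hour. FACS followed streptavidin microbead enrichment, using low and high (top ~1%) gates for expression (anti-HA) and reagent binding (streptavidin). Colony PCR, MiSeq 2 × 250 sequencing and CDR-length filtering followed. Labels for polyreactivity reflect the gate of origin.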
row,Sequence,polyreactivity (PSR sort gate)
1,QVQLVESGGGLVQAGGSLRLSCAASGSTFGSNAMGWYRQAPGKERELVAAITNGGSTNYADSVKGRFTISRDNAKNTVYLQMHSLKPEDTAVYYCNADPQQSKLWTYFFGFPGYYWGQGTQVTVSS,low polyreactivity
2,QVQLVESGGGLVQAGGSLRLSCAASGSTFGSNAMGWYRQAPGKERELVAAITRRGGSTYYADSVKGRFTISRDKAKNTVYLQMNSLKPEDTAVYYCAAQIHPRRDYSAFDYWGQGTQVTVSS,low polyreactivity
3,QVQLVESGGGLVQAGGSLRLSCAASGSTFGSYAMGWYRQAPGKVRELVASIRSSGTSTYYADSVKGRFTISRDNAKNTVYLQMNSLKPEDTAVYYCAKRYFTWRSTYNYWGQGTQVTVSS,high polyreactivity
4,QVQLVESGGGLVQAGGSLRLSCAASGSTFGSYAMGWYRQAPGTERELVAAISRAGSTYADSVKGRFTISRDNAKNTVYLQMHSLKPEDTAVYYCANRDNALYYGYDYWGQGTQVTVSS,low polyreactivity
5,QVQLVESGGGLVQAGGSLRLSCAASGSTFGSYTMGWYRQAPGKERELVAAINWSGGNTYYADSVKGRFTISRDNAKNTVYLQINSLKPEDTAVYYCAAAFYIYGVEGDYWGQGTQVTVSS,low polyreactivity
6,QVQLVESGGGLVQAGGSLRLSCAASGSTFGTYAMGWSRQAPGKERELVAAITSGGSTDYADSVKGRFTISRDNAKNTVYLQMNSLKPEDTAVYYCNATWELLSYYYLFWGYDYWGQGTQVTVSS,low polyreactivity
7,QVQLVESGGGLVQAGGSLRLSCAASGSTFGTYAMGWYRQAPGKERELVAAISRRGGSTYYADSVKGRFTISRDNAKNTVYLQMNSLKTEDTAVYYCAARKFHPDDNYWGQGTQVTVSS,high polyreactivity
8,QVQLVESGGGLVQAGGSLRLSCAASGSTFGTYAMGWYRQAPGKERELVATISIGGITYYADSVKGRFTISRDNAKNTVYLQMNSLKPEDTAVYYCAKDVTDPTSRSDPSGDDYWGQGTQVTVSS,low polyreactivity
9,QVQLVESGGGLVQAGGSLRLSCAASGSTFGTYAMGWYRQEPGKERELVAAIRWSGVSTYYADSVKGRFTISRDNAKNTVYLQMNSLKPEDTAVYYCAVALWVRGTYIYEYWGQGTQVTVSS,high polyreactivity
10,QVQLVESGGGLVQAGGSLRLSCAASGSTFGTYARGWYRQAPGKERELVAAISWSGGSTYYADSVKGRFTISRDNAKNTVYLQMNSLKPEDTAVYYCNAKTSIGTWVGDDYWGQGTQVTVSS,low polyreactivity
11,QVQLVESGGGLVQAGGSLRLSCAASGSTFGTYVMGWYRQAPGKERELVAAISKRGGRTYYADSVKGRFTISRDNAKNTVYLQMNSLKPEDTAVYYCNAVYLYSGSSARYYWGQGTQVTVSS,high polyreactivity
12,QVQLVESGGGLVQAGGSLRLSCAASGSTFGVYAMGWSRQAPGKERELDAAIRWSDGTTYYADSVKGRFTNSRDNAKNPVYLQMNSLKPEDTAVYYCAAVGYKRGTGRYGYWGQGTQVTVSS,high polyreactivity
13,QVQLVESGGGLVQAGGSLRLSCAASGSTFGVYAMVWYRQAPGKERELVAAINYSGRTYYADSVKGRFTISRDNAKNTVYLQMNSLKPEDTAVYYCAARIIVDDVGTKYYYWGQGTQVTVSS,high polyreactivity
14,QVQLVESGGGLVQAGGSLRLSCAASGSTFGVYTMGWYRQAPGKERELVAAITKSGGSTYYADSVKGRFTISRDNAKNTVYLQMNSLKPEDTAVYYCNTDYGRYLYYRYGYWGQGTQVTVSS,low polyreactivity
15,QVQLVESGGGLVQAGGSLRLSCAASGSTFGWNAMGWYRQAPGKERELVAAISRSGGRTYYADSVKGRFTISRDNAKNTVYLQMNSLKPEDTAVYYCAADRSTTGGLRGYWGQGTQVTVSS,high polyreactivity
16,QVQLVESGGGLVQAGGSLRLSCAASGSTFGWNAMGWYRQAPGKERELVAAISSRGGSTSYADSVKGRFTISRDNAKNSVYLQMNSLKPEYTAVYYCAAPYVYYRYGYWGLGTQVTVSS,low polyreactivity
17,QVQLVESGGGLVQAGGSLRLSCAASGSTFGWNAMGWYRQAPGKERELVAAISSSGGITYYADSVKGRFTISRDNAKNTVYLQMNSLKPEDTAVYYCAAERDDDWVNYWGQGTQVTVSS,low polyreactivity
18,QVQLVESGGGLVQAGGSLRLSCAASGSTFGWNAMGWYRQAPGKERELVAAISSSGGITYYAYSVKGRFTISRDKAKNTVSLQMNSLKPEDTAVYYCAAERDDDWGNYWGQGTQVTGSS,low polyreactivity
19,QVQLVESGGGLVQAGGSLRLSCAASGSTFGWYALGWYRQAPGKERELVAAIRSNGGSTYYADSVKGRFTLSRDNAKNTVYLQINSLKPEDTAVYYCAARGSPSKHHWYDYWGQGTQVTVSS,low polyreactivity
20,QVQLVESGGGLVQAGGSLRLSCAASGSTFGWYAMGWYRQAPGKERELVASITWDGGRTYYAHSVKGRFTISRDNAKNTVYLQMNSLKPEDTAVYYCAARGVSSPLNYWGQGSQVTVSS,low polyreactivity
21,QVQLVESGGGLVQAGGSLRLSCAASGSTFGWYTMGWYRQAPGKERELVAAINYSGGSTYYADSVKGRFTISRDNAKNTVYLQMNSLKPEDTAVYYCATDQSTYLYGYYYWGQGTQVTVSS,low polyreactivity
22,QVQLVESGGGLVQAGGSLRLSCAASGSTFGWYTMGWYRQAPGKERELVAAISSGGRTYYADSVKGRFTISRDNEKNTVYLQMNILKPEDTAVYYCAAGIYSSRHSPYGYWGQGTQVTVSS,high polyreactivity
23,QVQLVESGGGLVQAGGSLRLSCAASGSTFGYNAMGWYRQAPGKERELVAAITRSGGSTDYADSVKGRFTISRDNAKNTVYFQMNSLKPEDTAVYYCAAEGTGLQRYGYFGDDGYWGQGTQVTVSS,low polyreactivity
24,QVQLVESGGGLVQAGGSLRLSCAASGSTFGYNAMGWYRQAPGKERELVAAITWSGGSTYYADSVKGRFTISRDNAKNTVYLQMNSLKPEDTAAYYCAADDWYNSKWHYYYWGQGTQVTVSS,low polyreactivity
25,QVQLVESGGGLVQAGGSLRLSCAASGSTFGYYAMGWSRQAPGKERELVAAITGSGGSTYYADSVKGRFTISRDNAKNTVYLQMNSLKPEDTAVYYCATSYLLGRYYEYYYWGQGTQVTVSS,high polyreactivity
26,QVQLVESGGGLVQAGGSLRLSCAASGSTFGYYAMGWYRQAPGKERELVAAISASGSRTYYADSVKGRFTISRDNAKNTVYSQMNSQKPEDTAVYYCPALQYRRKIPTAYAGDYWGQGTQVTVSS,high polyreactivity
27,QVQLVESGGGLVQAGGSLRLSCAASGSTFGYYAMGWYRQAPGKERELVAAITASGGGTYYADSVKGRFTISRDNAKNTFYLQMNSLKPEDTEVYYCNRGYDYWGQGTHVTVSS,low polyreactivity
28,QVQLVESGGGLVQAGGSLRLSCAASGSTFGYYAMGWYRQAPGKERELVAAITGSGGRTYYADSVKGRFTISRDNAKNTVYLQMNSLKPEDTAVYYCAARTYRTEFAYGSWGQGTQVTVSS,low polyreactivity
29,QVQLVESGGGLVQAGGSLRLSCAASGSTFGYYAMGWYRQAPGKERELVAAITSGGTTNYADSVKGRFTISRDNAKNTVYLQMNSLKPEDTAVYYCNAVGTFVRYWTDGRDGVTYDYWGQGTQVTVSS,low polyreactivity
30,QVQLVESGGGLVQAGGSLRLSCAASGSTFGYYAMGWYRQAPGKERELVADISKSSGSTYYADSVKGRFTISRDNAKNTVYLQMNSLKPEDTAVYYCNRRYYYRTYDYWGQGTQVTVSS,high polyreactivity
